According to PMC6043352 (Journal of molecular biology, 2018):

Assays:
ubiquitin [1] = target: T1, ubiquitin (UniProt P0CG47 1-76); experiment: NMR titration
ubiquitin [2] = target: T1, ubiquitin; experiment: ITC

B1: human REV1 (932–1039) (domain or fragment, UniProt Q9UBZ9 932-1039, looked up)
chain: VPSPSQLDQSVLEALPPDLREQVEQVCAVQQAESHGDKKKEPVNGCNTGILPQPVGTVLLQIPEPQESNSDAGINLIALPAFSQVDPEVFAALPAELQRELKAAYDQR
Kd (ubiquitin [1]): ~27 µM | Kd (ubiquitin [2]): ~49 µM
